Source: publication PMC4539990

Target: purified FLAG-cortactin (rat) (UniProt Q66HL2)
Experiment: pull-down

Sequence of UniProt Q66HL2 (Q66HL2 whole entry): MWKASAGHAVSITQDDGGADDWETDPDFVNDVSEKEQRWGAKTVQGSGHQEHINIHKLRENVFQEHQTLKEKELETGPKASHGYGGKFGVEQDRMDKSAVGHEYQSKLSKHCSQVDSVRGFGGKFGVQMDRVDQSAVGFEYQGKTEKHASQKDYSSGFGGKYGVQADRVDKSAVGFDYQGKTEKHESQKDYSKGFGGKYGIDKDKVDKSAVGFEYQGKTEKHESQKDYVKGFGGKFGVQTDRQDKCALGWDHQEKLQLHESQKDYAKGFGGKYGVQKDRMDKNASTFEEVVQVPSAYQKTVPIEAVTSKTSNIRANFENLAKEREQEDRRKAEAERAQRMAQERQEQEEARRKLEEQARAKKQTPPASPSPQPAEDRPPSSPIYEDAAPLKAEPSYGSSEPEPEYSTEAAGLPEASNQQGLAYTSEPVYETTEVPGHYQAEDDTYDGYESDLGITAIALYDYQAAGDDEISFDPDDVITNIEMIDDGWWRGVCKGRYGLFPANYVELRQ

- Kd: 0.025 µM
Substance: purified shootin1 wild type (natural protein)
